According to article PMC3342439 (Journal of the American Chemical Society, 2012):

Legend:
Assay in all cases: BLI
[1] = target: T1, Germicidin synthase (Gcs) R317A (Streptomyces coelicolor, UniProt Q9K464 1-389, R317A)
T1 sequence (looked up): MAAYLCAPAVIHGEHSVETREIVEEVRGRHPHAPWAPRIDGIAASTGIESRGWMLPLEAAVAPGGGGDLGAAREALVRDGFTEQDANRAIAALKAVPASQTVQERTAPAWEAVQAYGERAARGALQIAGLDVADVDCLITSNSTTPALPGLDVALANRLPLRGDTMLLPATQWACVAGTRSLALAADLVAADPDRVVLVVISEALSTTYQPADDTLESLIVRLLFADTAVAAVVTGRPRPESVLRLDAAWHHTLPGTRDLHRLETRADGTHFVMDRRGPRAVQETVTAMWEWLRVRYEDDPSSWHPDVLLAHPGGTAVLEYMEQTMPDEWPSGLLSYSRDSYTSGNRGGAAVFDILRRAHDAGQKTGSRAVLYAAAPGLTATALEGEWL

[2] = target: T2, Germicidin synthase (Gcs) R276/317A double mutant (Streptomyces coelicolor, UniProt Q9K464 1-389, R276/317A | R276/317A)
T2 sequence (looked up): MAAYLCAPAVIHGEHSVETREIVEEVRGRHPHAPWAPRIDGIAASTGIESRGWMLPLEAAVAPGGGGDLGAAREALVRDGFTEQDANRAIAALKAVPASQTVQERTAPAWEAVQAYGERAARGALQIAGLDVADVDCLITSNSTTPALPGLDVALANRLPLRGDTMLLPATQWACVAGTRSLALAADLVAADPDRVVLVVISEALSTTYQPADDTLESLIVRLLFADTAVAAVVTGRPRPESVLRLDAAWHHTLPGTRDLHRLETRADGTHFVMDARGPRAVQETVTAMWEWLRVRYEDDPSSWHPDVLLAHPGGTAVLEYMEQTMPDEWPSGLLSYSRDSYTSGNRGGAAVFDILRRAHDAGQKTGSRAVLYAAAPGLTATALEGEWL

[3] = target: T3, Germicidin synthase (Gcs) R277A (Streptomyces coelicolor, UniProt Q9K464 1-389, R277A)
T3 sequence (looked up): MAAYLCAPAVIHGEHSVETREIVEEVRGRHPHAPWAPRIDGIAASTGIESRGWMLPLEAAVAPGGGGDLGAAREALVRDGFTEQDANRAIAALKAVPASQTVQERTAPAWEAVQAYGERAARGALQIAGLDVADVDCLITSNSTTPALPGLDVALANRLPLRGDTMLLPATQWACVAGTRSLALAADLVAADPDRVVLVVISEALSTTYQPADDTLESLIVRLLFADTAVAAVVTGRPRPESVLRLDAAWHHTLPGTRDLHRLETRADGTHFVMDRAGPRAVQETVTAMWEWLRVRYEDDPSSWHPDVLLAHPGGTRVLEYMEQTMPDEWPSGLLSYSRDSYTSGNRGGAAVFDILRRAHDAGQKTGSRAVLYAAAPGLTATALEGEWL

[4] = target: T4, Germicidin synthase (Gcs), wild type (Streptomyces coelicolor, UniProt Q9K464 1-389)
T4 sequence (looked up): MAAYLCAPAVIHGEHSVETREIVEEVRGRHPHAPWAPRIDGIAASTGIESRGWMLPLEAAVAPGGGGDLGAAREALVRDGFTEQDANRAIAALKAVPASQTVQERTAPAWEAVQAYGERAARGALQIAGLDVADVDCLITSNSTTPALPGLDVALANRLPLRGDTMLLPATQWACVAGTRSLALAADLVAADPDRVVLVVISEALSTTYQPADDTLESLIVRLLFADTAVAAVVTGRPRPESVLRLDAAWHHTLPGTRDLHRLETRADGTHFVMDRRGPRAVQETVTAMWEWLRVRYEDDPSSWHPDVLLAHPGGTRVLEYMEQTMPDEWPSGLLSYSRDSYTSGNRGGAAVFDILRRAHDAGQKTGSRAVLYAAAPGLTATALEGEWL

[5] = target: T5, Germicidin synthase (Gcs) R280A (Streptomyces coelicolor, UniProt Q9K464 1-389, R280A)
T5 sequence (looked up): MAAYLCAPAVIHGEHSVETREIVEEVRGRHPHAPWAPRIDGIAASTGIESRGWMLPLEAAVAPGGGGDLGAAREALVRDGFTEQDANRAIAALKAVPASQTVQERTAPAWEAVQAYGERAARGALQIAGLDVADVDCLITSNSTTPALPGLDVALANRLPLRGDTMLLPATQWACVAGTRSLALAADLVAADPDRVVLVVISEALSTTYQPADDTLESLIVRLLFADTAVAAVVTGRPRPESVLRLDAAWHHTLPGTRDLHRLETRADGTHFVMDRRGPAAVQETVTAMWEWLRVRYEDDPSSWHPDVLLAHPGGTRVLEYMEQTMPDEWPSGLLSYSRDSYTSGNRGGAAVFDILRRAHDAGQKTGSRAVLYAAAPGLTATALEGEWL

[6] = target: T6, Germicidin synthase (Gcs) R276A (Streptomyces coelicolor, UniProt Q9K464 1-389, R276A)
T6 sequence (looked up): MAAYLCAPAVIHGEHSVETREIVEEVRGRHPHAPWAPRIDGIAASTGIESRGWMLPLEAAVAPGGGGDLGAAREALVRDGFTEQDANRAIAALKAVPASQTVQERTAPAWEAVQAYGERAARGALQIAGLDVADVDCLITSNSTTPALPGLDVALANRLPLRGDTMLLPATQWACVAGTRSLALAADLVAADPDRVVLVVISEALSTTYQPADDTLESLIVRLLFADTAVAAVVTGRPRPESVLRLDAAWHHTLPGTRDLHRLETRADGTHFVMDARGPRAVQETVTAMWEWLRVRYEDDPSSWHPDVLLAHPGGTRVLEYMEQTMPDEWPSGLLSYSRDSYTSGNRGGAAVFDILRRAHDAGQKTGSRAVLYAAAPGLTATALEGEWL

B1: Acyl carrier protein AcpP (Sco2389), biotinylated (natural protein, Streptomyces coelicolor, UniProt P72393 1-82, looked up)
chain: MAATQEEIVAGLAEIVNEIAGIPVEDVKLDKSFTDDLDVDSLSMVEVVVAAEERFDVKIPDDDVKNLKTVGDATKYILDHQA
modifications: biotin (EZ-Link NHS-LC-LC-biotin, 5:1 molar ratio of biotin to protein)
Kd [1]: 161 nM
koff [1]: 0.000407 s⁻¹
kon [1]: 1810 M⁻¹ s⁻¹
Kd [2]: 192 nM
koff [2]: 0.00017 s⁻¹
kon [2]: 892 M⁻¹ s⁻¹
Kd [3]: 403 nM
koff [3]: 0.000128 s⁻¹
kon [3]: 695 M⁻¹ s⁻¹
Kd [4]: 225 nM
koff [4]: 0.00022 s⁻¹
kon [4]: 1190 M⁻¹ s⁻¹
Kd [5]: 184 nM
koff [5]: 0.000122 s⁻¹
kon [5]: 769 M⁻¹ s⁻¹
Kd [6]: 185 nM
koff [6]: 0.000253 s⁻¹
kon [6]: 628 M⁻¹ s⁻¹
